Test results taken from the RNAGym collection of RNA variant scans (doi:10.1073/pnas.2313332121).

B1: TPR t1 (parent)
chain: GACCAAUCUGCCCUCAGAGCUCGAGAACAUCUUCGGAUGCAGAGGAGGCAGGCUUCGGUGGCGCGAUAGCGCCAACGUCCUCAACCUCCAAUGCAUCCCACCACAUGAUGAUGCCUGAAGAGCCUUGGUUUUUUG

Variants of: B1
Test: polymerase ribozyme fitness, log enrichment relative to wild type (log ratio); higher = more active; in vitro selection for triplet polymerase activity
Outline: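 Mutant libraries of each subunit of a heterodimeric triplet polymerase ribozyme were built by PCR and transcribed. Each library went through one round of in vitro selection in triplicate: annealing with biotinylated primer, partner subunit and triplets, frozen incubation at −7 °C, gel excision of extended constructs, streptavidin-bead capture and RT-PCR. Input and output libraries were Illumina-sequenced; only genotypes with ≥10 input reads and ≥1 read per output were kept. Fitness is log2(genotype enrichment/wild-type enrichment), using inverse-variance-weighted replicate averages.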

In order of falling “polymerase ribozyme fitness (log ratio)” value:
1. GACCAAUCUGCCCUCAGAGCUCGAGAACAUCUUCGGAUGCAGAGGAGGUGAGCGUCGGUGACGCGAUAGCGCCAACGUCCUCAACCUCCAAUGCAUCCCACCACAUGAUGACGCCUGAAGAGCCUUGGUUUUUUG [C49U A50G G51A U54G G61A U112C]  -0.096
2. GACCAAUCUGCCCUCAGAGCUCGAGAACAUCUUCGGAUGCAGAGGAGGGAGGCUUCGGUGGCGCGAUAGCGCCAACAUCCUCAACCUCCAAUGCAUCCCACCACAUGAUGAGGCCUGAAGAGCCUUGGUUUUUUG [C49G G77A U112G]  -0.318
3. GACCAAUCUGCCCUCAGAGCUCGAGAACAUCUUCGGAUGCAGAGGAGGGAGGCUUCGGUGGCGCGAUAUCGCCAACGUCCUCAACCUCCAAUGCAUCCCACCACAUGAUGAUGCCUGAAGAGCCUUGGUUUUUUG [C49G G69U]  -0.396
4. GACCAAUCUGCCCUCAGAGCUCGAGAACAUCUUCGGAUGCAGAGGAGGUCGGCUUCGGUGGCGCGAUAGCGCCAACGUCCUCAACCUCCAAUGCAUCCCACCACAUGAUGAUGCCUGAAGAGCCUUGGUUUUUUG [C49U A50C]  -0.544
5. GACCAAUCUGCCCUCAGAGCUCGAGAACAUCUUCGGAUGCAGAGGAGGGAGGCUUCGGGGGCGCGAUAGCGCCAACGUCCUCAACCUCCAAUGCAUCCCACCACAUGAUGAUGCCUGAAGAGCCUUGGUUUUUUG [C49G U59G]  -0.612
6. GACCAAUCUGCCCUCAGAGCUCGAGAACAUCUUCGGAUGCAGAGGAGGGAGGCUUCGGUGGCGCGAUAGCGCCAACGUCCUCAACCUCCAAUACAUCCCACCACAUGAUGAUGCCUGAAGAGCCUUGGUUUUAUG [C49G G93A U133A]  -0.83
7. GACCAAUCUGCCCUCAGAGCUCGAGAACAUCUUCGGAUGCAGAGGAGGUAGGCUUCGGUGGCGCGAUAGCGCCAACGUCCUCAACCUCCAAUGCGUCCCACCACAUGAUGAUGCCUGAAGAGCCUUGGUUUUUUG [C49U A95G]  -1.14
8. GACCAAUCUGCCCUCAGAGCUCGAGAACAUCUUCGGAUGCAGAGGAGGGAGGCUGCGGUGGCGCGAUAGCGCCAACGUCCUCAACCUCCAAUGCAUCCCACCACAUGAUGAUGCCUGAAGAGCCUUGGUUUUUUG [C49G U55G]  -1.16
9. GACCAAUCUGCCCUCAGAGCUCGAGAACAUCUUCGGAUGCAGAGGAGGGAGGCUUCGGUGGCGCGAUAGCGCCAACGUCCUCAACCUCCAAUACAUCCCACCACAUGAUGAUGCCUGAAGAGCCUUGGUUUUUUG [C49G G93A]  -1.26
10. GACCAAUCUGCCCUCAGAGCUCGAGAACAUCUUCGGAUGCAGAGGAGGGAGGCUUCGGUGGCGCGAUAGCGCCAACGUCCUCAACCUCCAAUGCAUCCCACCACAUGAUAAUGCCUGAAGAGCCUUGGUUUUUUG [C49G G110A]  -1.31
11. GACCAAUCUGCCCUCAGAGCUCGAGAACAUCUUCGGAUGCAGAGGAGGGAGGCUUCGGUGGCGCGAUAGCGCCAACGUCCUCAACCUCCAAUGCAUCCCACCACAUGAUGAUGCCUGAAUAGCAUUGGUUUUUUU [C49G G120U C124A G135U]  -1.63
12. GACCAAUCUGCCCUCAGAGCUCGAGAACAUCUUCGGAUGCAGAGGAGGGAGGCUUCGGUGGCGCGAUAGCGCCAACGUCCUCAACCUCCAAUGCAUCCCACCACAUGAUGAUGCCUGAAGAGCCUUAGUUUUUUG [C49G G127A]  -1.65
13. GACCAAUCUGCCCUCAGAGCUCGAGAACAUCUUCGGAUGCAGAGGAGGGAGGCUGCGGUGGCGCGAUAGCGCCAACGUCCUCAACCUCCAAUGCAUCCCACCACAUGAUGAUGCCUGAAGAGCCUUGGAUUUUUG [C49G U55G U129A]  -1.82
14. GACCAAUCUGCCCUCAGAGCUCGAGAACAUCUUCGGAUGCAGAGGAGGGAGGCUUCGGUGGCGCGAUAGCGCCAACGUCCUCAACCUCCAAUGCAUCCCACCACAUGAUGACACCUGAAGAGCCUUGGUUUUUUG [C49G U112C G113A]  -2.11
15. GACCAAUCUGCCCUCAGAGCUCGAGAACAUCUUCGGAUGCAGAGGAGGGAGGCUCCGGUGGCGCGAUAGCGCCAAUGUCCUCAACCUCCAAUGCCUCUCACCACAUGAUGAUGCCUGAAGAGCCUUGGUUUUUUG [C49G U55C C76U A95C C98U]  -2.41
16. GACCAAUCUGCCCUCAGAGCUCGAGAACAUCUUCGGAUGCAGAGGAGGGAGGCUUCGGUGGCGCGAUACCGCCAACGCCCUCAACCUCCAAUGCAUCCCACCACAUGAUGAUGCCUGAAGAGCCUUGGUUUUUUG [C49G G69C U78C]  -2.8
17. GACCAAUCUGCCCUCAGAGCUCGAGAACAUCUUCGGAUGCAGAGGAGGGAGGCUUCGGUGGCGCGAUAUCGCCAACGUCCUCAACCUCCAAUGCAUCCCACCACAUGAUGAUGCCUGAAGAGCCAUGAUUUUUUG [C49G G69U U125A G128A]  -3.1
18. GACCAAUCUGCCCUCAGAGCUCGAGAACAUCUUCGGAUGCAGAGGAGGUGGGCUUCGGUGGCGCGAUAGCUCCAACGUCCUCAACCUCCAAUGCAUCCCACCACUUGAUGAUGCCUGAAGAGCCUUGGUUUUUUG [C49U A50G G71U A105U]  -4.83
19. GACCAAUCUGCCCUCAGAGCUCGAGAACAUCUUCGGAUGCAGAGGAGGGAGGCUUCGGGGGGGCGAUAGCGUCAACGUCCUCAACCUCCAAUGCAUCCCACCACAUGAUGAUGCCUGAAGAGCCUUGGUUUUUUG [C49G U59G C62G C72U]  -4.88
20. GACCAAUCUGCCCUCAGAGCUCGAGAACAUCUUCGGAUGCAGAGGAGGUAGGCUUCGGUGGCGCGGUAGCGCAAACGUCCUCAACCUCCAAUGCAUCCCAACACAUGAUGAUGCCUGAAGAGCCUUGAUUUUUUG [C49U A66G C73A C101A G128A]  -4.92
21. GACCAAUCUGCCCUCAGAGCUCGAGAACAUCUUCGGAUGCAGAGGAGGUAGGCUUCGGUGGCGCGCUAGCGCCAACGUCCUCAACGUUCAAAGCAUCCCACCACAUGAUGAUGUCUGAAGAGCCUUGGUUUUUUG [C49U A66C C86G C88U U92A C114U]  -5.32
